Reference: the supplement of paper PMC11908140

B1: library; numbered along this chain (parent)
chain: MRKPRAAVGSGHRKQAASQEGRQKHAKNNSQAKPSACDGLARQPEEVVLQASVSSYHLFRDVAEVTAFRGSLLSWYDQEKRDLPWRRRAEDEMDLDRRAYAVWVSEVMLQQTQVATVINYYTGWMQKWPTLQDLASASLEEVNQLWAGLGYYSRGRRLQEGARKVVEELGGHMPRTAETLQQLLPGVGRYTAGAIASIAFGQATGVVDGNVARVLCRVRAIGADPSSTLVSQQLWGLAQQLVDPARPGDFNQAAMELGATVCTPQRPLCSQCPVESLCRARQRVEQEQLLASGSLSGSPDVEECAPNTGQCHLCLPPSEPWDQTLGVVNFPRKASRKPPREESSATCVLEQPGALGAQILLVQRPNSGLLAGLWEFPSVTWEPSEQLQRKALLQELQRWAGPLPATHLRHLGEVVHTFSHIKLTYQVYGLALEGQTPVTTVPPGARWLTQEEFHTAAVSTAMKKVFRVYQGQQPGTCMGSKRSQVSSPCSRKKPRMGQQVLDNFFRSHISTDAHSLNSAAQ

Variants of: B1
Assay: 8OG:A repair function score (normalized; synonymous = 0, nonsense = -1) (normalized log-likelihood score); higher = more repair activity (WT-like)
Details: with 8OG:A DNA repair reporter (GFP) in HEK-293 MUTYH KO cells
Procedure, shortened: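 MUTYH knockout HEK-293 cells carrying lentiviral MUTYH cDNA NNN codon-scan libraries were grown with 10 pg/ml doxycycline and co-transfected with mCherry and a GFP reporter of 8OG:A repair. Viable mCherry+ cells were sorted at 72 h into GFP+ (repair) and GFP− bins, with three replicates per tile, and tile amplicons were sequenced. Rosace fitness scores for each tile were turned into a normalized repair function score anchored on the synonymous and nonsense distributions. Synonymous medians were set to 0 and nonsense medians to -1, and variants below 300 counts per million at the start were dropped.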
MRKPRAAVGSGHRKQAASQEGRQKHAKNNSQAKPSACDGLARQPEEVVLQASVSSYHLFRDVAEVTAFRGSLLSWYDQEKRDLPWRRRAEDEMDLDRRAYAVWVSEVMLQQTQVATVINYYTGWMQKWPTLQDLASASLEEVNQLWAGLGYYSRGRRLQEGARKVVEELGGHMPRTAETLQQLLPGVGRYTAGAIASIAFGQATGVVDGNVARVLCRVRAIGADPSSTLVSQQLWGLAQQLVDPARPGDFNQAAMELGATVPTPQRPLCSQCPVESLCRARQRVEQEQLLASGSLSGSPDVEECAPNTGQCHLCLPPSEPWDQTLGVVNFPRKASRKPPREESSATCVLEQPGALGAQILLVQRPNSGLLAGLWEFPSVTWEPSEQLQRKALLQELQRWAGPLPATHLRHLGEVVHTFSHIKLTYQVYGLALEGQTPVTTVPPGARWLTQEEFHTAAVSTAMKKVFRVYQGQQPGTCMGSKRSQVSSPCSRKKPRMGQQVLDNFFRSHISTDAHSLNSAAQ [C262P] was tested, and the “8OG:A repair function score” value was -1.18. With MRKPRAAVGSGHRKQAASQEGRQKHAKNNSQAKPSACDGLARQPEEVVLQASVSSYHLFRDVAEVTAFRGSLLSWYDQEKRDLPWRRRAEDEMDLDRRAYAVWVSEVMLQQTQVATVINYYTGWMQKWPTLQDLASASLEEVNQLWAGLGYYSRGRRLQEGARKVVEELGGHMPRTAETLQQLLPGVGRYTAGAIASIAFGQATGVVDGNVARVLCRVRAIGADPSSTLVSQQLWGLAQQLVDPARPGDFNQAAMELGATVTTPQRPLCSQCPVESLCRARQRVEQEQLLASGSLSGSPDVEECAPNTGQCHLCLPPSEPWDQTLGVVNFPRKASRKPPREESSATCVLEQPGALGAQILLVQRPNSGLLAGLWEFPSVTWEPSEQLQRKALLQELQRWAGPLPATHLRHLGEVVHTFSHIKLTYQVYGLALEGQTPVTTVPPGARWLTQEEFHTAAVSTAMKKVFRVYQGQQPGTCMGSKRSQVSSPCSRKKPRMGQQVLDNFFRSHISTDAHSLNSAAQ [C262T] the “8OG:A repair function score” value was -1.19. For MRKPRAAVGSGHRKQAASQEGRQKHAKNNSQAKPSACDGLARQPEEVVLQASVSSYHLFRDVAEVTAFRGSLLSWYDQEKRDLPWRRRAEDEMDLDRRAYAVWVSEVMLQQTQVATVINYYTGWMQKWPTLQDLASASLEEVNQLWAGLGYYSRGRRLQEGARKVVEELGGHMPRTAETLQQLLPGVGRYTAGAIASIAFGQATGVVDGNVARVLCRVRAIGADPSSTLVSQQLWGLAQQLVDPARPGDFNQAAMELGATVRTPQRPLCSQCPVESLCRARQRVEQEQLLASGSLSGSPDVEECAPNTGQCHLCLPPSEPWDQTLGVVNFPRKASRKPPREESSATCVLEQPGALGAQILLVQRPNSGLLAGLWEFPSVTWEPSEQLQRKALLQELQRWAGPLPATHLRHLGEVVHTFSHIKLTYQVYGLALEGQTPVTTVPPGARWLTQEEFHTAAVSTAMKKVFRVYQGQQPGTCMGSKRSQVSSPCSRKKPRMGQQVLDNFFRSHISTDAHSLNSAAQ [C262R], the “8OG:A repair function score” value was -1.05. MRKPRAAVGSGHRKQAASQEGRQKHAKNNSQAKPSACDGLARQPEEVVLQASVSSYHLFRDVAEVTAFRGSLLSWYDQEKRDLPWRRRAEDEMDLDRRAYAVWVSEVMLQQTQVATVINYYTGWMQKWPTLQDLASASLEEVNQLWAGLGYYSRGRRLQEGARKVVEELGGHMPRTAETLQQLLPGVGRYTAGAIASIAFGQATGVVDGNVARVLCRVRAIGADPSSTLVSQQLWGLAQQLVDPARPGDFNQAAMELGATVNTPQRPLCSQCPVESLCRARQRVEQEQLLASGSLSGSPDVEECAPNTGQCHLCLPPSEPWDQTLGVVNFPRKASRKPPREESSATCVLEQPGALGAQILLVQRPNSGLLAGLWEFPSVTWEPSEQLQRKALLQELQRWAGPLPATHLRHLGEVVHTFSHIKLTYQVYGLALEGQTPVTTVPPGARWLTQEEFHTAAVSTAMKKVFRVYQGQQPGTCMGSKRSQVSSPCSRKKPRMGQQVLDNFFRSHISTDAHSLNSAAQ [C262N] was tested, and the “8OG:A repair function score” value was -1.19. For MRKPRAAVGSGHRKQAASQEGRQKHAKNNSQAKPSACDGLARQPEEVVLQASVSSYHLFRDVAEVTAFRGSLLSWYDQEKRDLPWRRRAEDEMDLDRRAYAVWVSEVMLQQTQVATVINYYTGWMQKWPTLQDLASASLEEVNQLWAGLGYYSRGRRLQEGARKVVEELGGHMPRTAETLQQLLPGVGRYTAGAIASIAFGQATGVVDGNVARVLCRVRAIGADPSSTLVSQQLWGLAQQLVDPARPGDFNQAAMELGATVQTPQRPLCSQCPVESLCRARQRVEQEQLLASGSLSGSPDVEECAPNTGQCHLCLPPSEPWDQTLGVVNFPRKASRKPPREESSATCVLEQPGALGAQILLVQRPNSGLLAGLWEFPSVTWEPSEQLQRKALLQELQRWAGPLPATHLRHLGEVVHTFSHIKLTYQVYGLALEGQTPVTTVPPGARWLTQEEFHTAAVSTAMKKVFRVYQGQQPGTCMGSKRSQVSSPCSRKKPRMGQQVLDNFFRSHISTDAHSLNSAAQ [C262Q], the “8OG:A repair function score” value was -1.27. MRKPRAAVGSGHRKQAASQEGRQKHAKNNSQAKPSACDGLARQPEEVVLQASVSSYHLFRDVAEVTAFRGSLLSWYDQEKRDLPWRRRAEDEMDLDRRAYAVWVSEVMLQQTQVATVINYYTGWMQKWPTLQDLASASLEEVNQLWAGLGYYSRGRRLQEGARKVVEELGGHMPRTAETLQQLLPGVGRYTAGAIASIAFGQATGVVDGNVARVLCRVRAIGADPSSTLVSQQLWGLAQQLVDPARPGDFNQAAMELGATVSTPQRPLCSQCPVESLCRARQRVEQEQLLASGSLSGSPDVEECAPNTGQCHLCLPPSEPWDQTLGVVNFPRKASRKPPREESSATCVLEQPGALGAQILLVQRPNSGLLAGLWEFPSVTWEPSEQLQRKALLQELQRWAGPLPATHLRHLGEVVHTFSHIKLTYQVYGLALEGQTPVTTVPPGARWLTQEEFHTAAVSTAMKKVFRVYQGQQPGTCMGSKRSQVSSPCSRKKPRMGQQVLDNFFRSHISTDAHSLNSAAQ [C262S] was tested, and the “8OG:A repair function score” value was -1.38.
